According to the DeepSol protein solubility set:

Assay: soluble on expression in E. coli; label from the status in PepcDB or PDB records

Sequence	soluble on expression in E. coli
MDIPRIFTISESEHRIHNPFTEEKYATLGRVLRMKPGTRILDLGSGSGEMLCTWARDHGITGTGIDMSSLFTAQAKRRAEELGVSERVHFIHNDAAGYVANEKCDVAACVGATWIAGGFAGAEELLAQSLKPGGIMLIGEPYWRQLPATEEIAQACGVSSTSDFLTLPGLVGAFDDLGYDVVEMVLADQEGWDRYEAAKWLTMRRWLEANPDDDFAAEVRAELNIAPKRYVTYARECFGWGVFALIARLEHHHHHH	soluble
MLVPSANRWVPKFKSKKTEKKLAPDGKTELLDKDEVERKMKSLLNKLTLEMFDAISSEILAIANISVWETNGETLKAVIEQIFLKACDEPHWSSMYAQLCGKVVKELNPDITDETNEGKTGPKLVLHYLVARCHAEFDKGWTDKLPTNEDGTPLEPEMMSEEYYAAASAKRRGLGLVRFIGFLYRLNLLTGKMMFECFRRLMKDLTDSPSEETLESVVELLNTVGEQFETDSFRTGQATLEGSQLLDSLFGILDNIIQTAKISSRIKFKLIDIKELRHDKNWNS	soluble
MAEKLSAHCHCGAVAFTVELSDGFNTVRRCNCSYCRMRGAVAVSSPRSGIEVVRGGDKLTEYRFNTGEAVHFFCSVCGIYTFHQRRSNPQQYGVNVACIDGVSPFDFP	not soluble
MGHHHHHHSHMTTNSLLIIDFEFTMPDGKYSPQNFFPEIIEAGIVKSIDDEVVETFSSYVRPKKFPKLTKRCKSFLKITQKQVDEGMRFEDFIRKLNELDPEKNSTIITWGNMDMKVLKQNCMFNHIPFPFKGEMRDLSLEYKNFFGDRTLTGLWKAAEEYGDSGTGTHHKALDDALTAYKLFKLVEQDKQYLEKPKPPTIGERIDLTELLKRAT	soluble
DPSKGRWVEGITSEGYHYYYDLISGASQWEKPEGFQGDLKKTAVKTVWVEGLSEDGFTYYYNTETGESRWEKPDD	soluble
MEGGSITPGEDKPEIQSPIPPNQIFILSGQSNMAGRGGVFKDHHNNRWVWDKILPPECAPNSSILRLSADLRWEEAHEPLHVDIDTGKVCGVGPGMAFANAVKNRLETDSAVIGLVPCASGGTAIKEWERGSHLYERMVKRTEESRKCGGEIKAVLWYQGESDVLDIHDAESYGNNMDRLIKNLRHDLNLPSLPIIQVAIASGGGYIDKVREAQLGLKLSNVVCVDAKGLPLKSDNLHLTTEAQVQLGLSLAQAYLSNFC	soluble
MGSDKIHHHHHHMKTRYTYGGDEHVYVEIDDEMSLDAFFIALSLSKLVREANIPGVTEICPANASFEVRFDPDVIAPDEMMARIRELEGAAKAQEKRLDTRIIEIPVFYEDPWTHETLMRFRERHQDPSGTDLDYAARINGYDDAAAFIEAHHSQPWFVSMVGFVSGLPFLYQLVERQKQLEVPKYLRPRTDTPKLTVGYGGCFSCIYSVRGAGGYQMFGITPMPIFDPEQKISYLKDFMVFFRPGDIVKWKPIDRAEYDAITAQVEAGSYVPKIAEVAFDLDAFNKDMTGFNAKLMEALNDA	not soluble
MPKINTSSSGWLADISLFYEKRGTNTKLVHREQVGPLMVQRPFYPETGIAHTYLLHPPGGVVGGDQLNINIHVSPQAHSLLTTPGATKFYRSSGATSSQTQNLTVESDGFLEWLPQENIFFPDSQAQLKTQVELHKNAHFIGWEMNCFGRPVLDEIFENGFVTGRTNIKVDDQLLLSESMYIDSIDEIKHAAGMRHYPMLGNLYIYPASEALEEKLRTLIDENFHEQPELFGSSNPICGITEIDGLLVIRYLGHQTEPMMACFSTLWQHTRQHWLGKLPEVPRIWATLEHHHHHH	not soluble
MSLADIPYGTDYPDAPWIDRDGHVLIDDGGKPTQVHRGQARIAYRLAERYQDKLLHVAGIGWHSWDGRRWAADDRGEAKRAVLAELRQALSDSLNDKELRADVRKCESASGVAGVLDLAAALVPFAATVADLDSDPHLLNVANGTLDLHTLKLRPHAPADRITKICRGAYQSDTESPLWQAFLTRVLPDEGVRGFVQRLAGVGLLGTVREHVLAILIGVGANGKSVFDKAIRYALGDYACTAEPDLFMHRENAHPTGEMDLRGVRWVAVSESEKDRRLAESTIKRLTGGDTIRARKMRQDFVEFTPSHTPLLITNHLPRVPGDDTAIWRRIRVVPFEVVIPADEQDRELDARLQLEADSILSWAVAGWSDYQRIGLSQPDAVLAATSNYREDSDTIKRFIDDECVTSSPVLKATTTHLFEAWQRWRVQEGVPEISRKAFGQSLDTHGYPVTEGHHHHHH	not soluble
MEDLYPSRQNNQPKILKRKDPVIYTDRSKDNQAPITKEQLDSYEKNGFLQIKNFFSEDEVIDMQKAIFELQDSIKDVASDKVIREPESNDIRSIFHVHQDDNYFQDVANDKRILDIVRHLLGSDVYVHQSRINYKPGFKGKEFDWHSDFETWHVEDGMPRMRAISVSIALSDNYSFNGPLMLIPGSHNYFVSCVGETPDNNYKESLKKQKLGVPDEESLRELTRIGGGISVPTGKAGSVTLFESNTMHGSTSNITPYPRNNLFMVYNSVKNRLVEPFSGGEKRPEYIAVREKQPVYSAVNSAWSHPQFEK	soluble
MKDLKLDEHTGLVLEGGGMRGVFTCGVLDYLMDHDIRFPYAIGVSAGACNGLSYASRQRGRAKFSNIDLLEKYNYIGLKHLLRKRNILDFDLLFNEFPEHILPYDYDTYFASPERFVMVTTNCMTGEANYFEEKRDKSRVIDIVRASSSLPFVCPVTYVDGVPMLDGGIVDSIPLQRAIADGYTRNVVILTRNRGYRKDTKDIRIPSFVYRKYPKLREALSRRCAVYNEQLEMVEQMEDEGKIIVIRPQKPVMVDRIERDVQKLTEFYEEGYDCARNLFEF	soluble
MSLSVVERIFNHSESRPDCIAVYENDRTISYENLASDIKKTAAKLVSLGVTSEDAVLVRSNNSYSFILLYFSIHYVGAKFVNVAPDSDVSYVSFIEDKVNPKLFIEKSQDFIRNIDSYTFDNIFPPQARGIADIMFTSGTTGEPKGVLLSHKSLVLATEHIISHVKNTNEDVELLLMPLSHSFAMARMRTSLFAGGAIVVGCSFKQLKSVFKAIEFYKVTGLGLVPSAWSYITLMTKDLIRKYSEQLNFIEFGSAHFPFEDKKQVAEWFPNTNVVMHYGLTEVSRATFIDFHNDDINAVGHRYRGADFKIIDNKGAEVIEGEEGEIVFKAPWMLDGYFENSQLTSDCFVEGYFKTGDLGRVVGDYLFLTGRLKEIINVGGKKVSPDQVEKVLSEALGVQECACAALSDANMGEVVQAYIVVKSGWDCENVISNIKETINGQLPMHMRPKKYSIVSALPKTVSGKVQRYKLSSEGHHHHHH	soluble
MCENLYGEEYKMEILRLQKMMNNMTCGQMAKPLTMKDFQIHQALGKGAYGNVYRVRSLHDGKDYALKQIMISSKNEGIPQSVLREITVMKHLARKAHPNIISLKSVFHQLDPVRAILKINMIMERCDWDLHTFLRNIPRGVPEQQAKHVTAQIVRALDFLHTHSIIHRDLKPQNILLNRDQTVKLADFGLSKEYSNTTAFTTLVVTLWYRSPEVLLQSYYNSTVDMWALGCIVSEIYCRQPLFVGQNEAEQLTDIFKKMGTPVGKDWPSESVIARDSFPQYRPTNLKDLSPQMSKQAIEFVQQCLRYDHSKRLSARGALSHPFLKPAVATKSRVLKQINFNK	not soluble
MGSDKIHHHHHHAQQSSGDYYEGLSRKIGFSQMIPPHGLEITYDKTVHIIFPSPVRYVDLGSPNLIAGKADGAENVIRVKATRKHFRSETNMSVITEDGNFYTFNVKYADEPLLLNVEMCDFIHDGESVNHPNNAMEIYLQELAGESPRLVRLIMKSVYMQDKRKVKHVGSKRFGVQYLLKGLYAHGELLYFHTEVKNATHVPFDVDFVTFKIVDKKIVKRTAMQEQVIYPLRAFNYVTRVDGKKNERTVFALPKFTIPDGKKLVVEMYEKQGGRHQSFEVENEDLVRAGTVNELKVR	not soluble
PPHVKFIKEKDICSYEEASDPGHFRWYPKGKLMRDLLADYVYNLVVNMGAMPVETPIMYDLGNPAIREHADKFGERQYRFRQGNKELMLRFAACFGQFMMKKDMYLLPRYLPLKLYELSTYSFRYEQRGELVGLKRLRCFTMPDMHTVCLNLEQAMEEFEKQFWECLKTGDDLNLSYSVIFRFTKDFFDEHRDWFFKIAKEYKNKYGKDVILEILPKRKHYWVGKVDIAVIDSLGRPIENPTVQIDVESAKRFDIKVHTNEGEIYPIILHCSPTGSIERVLCGLLEKAA	not soluble
